From US20190142902A1 (RELAXERA PHARMAZEUTISCHE GESELLSCHAFT MBH, published 2019)

Target: T1, human relaxin receptor RXFP1 (relaxin family peptide receptor 1) (human, UniProt Q9HBX9 1-757)
T1 sequence (looked up): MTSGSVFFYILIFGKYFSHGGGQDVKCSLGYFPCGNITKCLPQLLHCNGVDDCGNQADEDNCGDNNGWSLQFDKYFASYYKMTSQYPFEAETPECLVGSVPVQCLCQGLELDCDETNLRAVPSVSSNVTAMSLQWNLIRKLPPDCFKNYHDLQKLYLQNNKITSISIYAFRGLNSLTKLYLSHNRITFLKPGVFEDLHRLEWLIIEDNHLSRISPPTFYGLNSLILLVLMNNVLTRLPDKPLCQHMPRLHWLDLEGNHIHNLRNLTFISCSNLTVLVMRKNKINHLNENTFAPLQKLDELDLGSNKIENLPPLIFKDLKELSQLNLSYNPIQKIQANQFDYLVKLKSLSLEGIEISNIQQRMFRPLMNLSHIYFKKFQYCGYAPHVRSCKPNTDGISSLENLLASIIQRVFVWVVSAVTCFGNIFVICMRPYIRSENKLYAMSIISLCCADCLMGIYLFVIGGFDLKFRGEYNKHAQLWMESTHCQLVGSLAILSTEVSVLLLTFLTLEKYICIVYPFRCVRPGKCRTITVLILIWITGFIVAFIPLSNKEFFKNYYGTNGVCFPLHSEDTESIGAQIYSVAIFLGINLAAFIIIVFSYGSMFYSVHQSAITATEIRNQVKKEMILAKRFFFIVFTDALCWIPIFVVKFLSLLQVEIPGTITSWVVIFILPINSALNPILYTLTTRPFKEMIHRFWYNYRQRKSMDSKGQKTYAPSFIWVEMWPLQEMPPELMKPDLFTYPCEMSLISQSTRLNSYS
Assay: cell-based or functional assay

cAMP response pEC50 (cAMP reporter gene assay, HEK293T cells overexpressing RXFP1): 10.2 pEC50 (negative decadic logarithm of the half-maximum concentration)
B1: -Asp-shRlx, single aa degradation product of synthetic human relaxin-2 (ligand)
chain 1: ELYSALANKCCHVGCTKRSLARFC
chain 2: SWMEEVIKLCGRELVRAQIAICGMSTWS
modifications: pGlu (pyroglutamate) at position 1
